Results as given in PMC10844294.

Biological target: B.1.1.529 (BA.1) S1 + S2 trimer-His Recombinant Protein (SARS-CoV-2) (UniProt P0DTC2)
Test: cryo-EM structure

B.1.1.529 (BA.1) S1 + S2 trimer-His Recombinant Protein (from UniProt P0DTC2 324-533) (natural protein)
stoichiometry N: 3
